According to PMC6779431:

Molecular target: RTP1S_C2-Strep (TM domain deletion mutant of RTP1S, 1-176 amino acids, with a Strep-tag at the C terminus) (mouse)
Assay: SEC-MALS; OH-Pak SB-804HQ column, 100 μl of 0.3 mg/ml, 20 mM phosphate buffer pH 8.0, 100 mM NaCl

stoichiometry N: 2
Substance: RTP1S_C2-Strep (TM domain deletion mutant of RTP1S, 1-176 amino acids, with a Strep-tag at the C terminus) (domain or fragment)
